Molecular target: low-density lipoprotein (LDL) particles, 125I-labelled
Assay: cell-based or functional assay

Substance	uptake of 125I-LDL by FH fibroblasts infected with LDL-receptor adenovirus [fold]	uptake of 125I-LDL by FH fibroblasts infected with LRP5 adenovirus [% increase]
LDL-receptor (from UniProt P01130 22-860) (receptor; the values are: fold increase in LDL uptake)	20	
human LDL-receptor related protein-5 (LRP5), isoform 1 (from UniProt O75197 32-1615)		60
